PMC12344292, “Structural basis for membrane microdomain formation by a human Stomatin complex” (Nature Communications, 2025)

Target: the molecule itself
Assay: cryo-EM structure; single-particle analysis of native membrane vesicles holding ALFA-tagged Stomatin, isolated on ALFA Selector CE resin and eluted with 0.2 mM ALFA peptide; 20 mM K-HEPES pH 7.4, 300 mM KCl, 5 mM DTT; C16 then local C8 symmetry

B1: human Stomatin (natural protein, UniProt P27105-1 1-288, looked up)
chain: MAEKRHTRDSEAQRLPDSFKDSPSKGLGPCGWILVAFSFLFTVITFPISIWMCIKIIKEYERAIIFRLGRILQGGAKGPGLFFILPCTDSFIKVDMRTISFDIPPQEILTKDSVTISVDGVVYYRVQNATLAVANITNADSATRLLAQTTLRNVLGTKNLSQILSDREEIAHNMQSTLDDATDAWGIKVERVEIKDVKLPVQLQRAMAAEAEASREARAKVIAAEGEMNASRALKEASMVITESPAALQLRYLQTLTTIAAEKNSTIVFPLPIDMLQGIIGAKHSHLG
notes: Stomatin, human, UniProt P27105-1; full-length protein in its membrane environment; The final atomic model includes residues 14-18 and 29-278; The 16 identical chains adopt two alternating conformations (Conformer A and B); also called N-terminal ALFA-tagged human Stomatin; Stomatin complex; source: HEK293S GnTI- cells infected with BacMam baculovirus (pEG BacMam); isolated in native membrane …
  stoichiometry N: 16
